Experimental data taken from publication PMC6748660.

Molecular target: full-length mScarlet-tagged tau (2N4R) (human) (UniProt P10636)
Assay: TIRF microscopy, condensate enrichment assay

## GFP-tagged isolated C-terminus of tau (domain or fragment)
  fold enrichment within mScarlet-2N4R condensates over the lattice: 1.2 fold
